Patent publication US20200131257A1 (YALE UNIVERSITY, published 2020)
Where “and” joins values, the source holds several entries; their conditions need not be identical. Equal values may be shown once. Read-outs that look alike come from different tables or passages of the source. Values belong to the molecule of their own block, whether it stands above or below them. No end group written: not given here.

Tests used:
[1] = biological target: extracellular domain of human β-Klotho (sKLB) (human) (UniProt Q86Z14); test: MST competition; GST-FGF21CT variant titrated into a constant sKLB/fl-FGF21 mixture
[2] = biological target: T1, extracellular domain of human β-Klotho (sKLB) (human, UniProt Q86Z14 53-983); test: MST; 35 nM fluorescently labeled FGF21, sKLB titrated 0.03-1000 nM
T1 construct: Made in HEK293-EBNA cells; also called WT sKLB; not shown: remnant of the TEV protease cleavage site / four-Gly linker left after the Fc tag was cut off
T1 sequence: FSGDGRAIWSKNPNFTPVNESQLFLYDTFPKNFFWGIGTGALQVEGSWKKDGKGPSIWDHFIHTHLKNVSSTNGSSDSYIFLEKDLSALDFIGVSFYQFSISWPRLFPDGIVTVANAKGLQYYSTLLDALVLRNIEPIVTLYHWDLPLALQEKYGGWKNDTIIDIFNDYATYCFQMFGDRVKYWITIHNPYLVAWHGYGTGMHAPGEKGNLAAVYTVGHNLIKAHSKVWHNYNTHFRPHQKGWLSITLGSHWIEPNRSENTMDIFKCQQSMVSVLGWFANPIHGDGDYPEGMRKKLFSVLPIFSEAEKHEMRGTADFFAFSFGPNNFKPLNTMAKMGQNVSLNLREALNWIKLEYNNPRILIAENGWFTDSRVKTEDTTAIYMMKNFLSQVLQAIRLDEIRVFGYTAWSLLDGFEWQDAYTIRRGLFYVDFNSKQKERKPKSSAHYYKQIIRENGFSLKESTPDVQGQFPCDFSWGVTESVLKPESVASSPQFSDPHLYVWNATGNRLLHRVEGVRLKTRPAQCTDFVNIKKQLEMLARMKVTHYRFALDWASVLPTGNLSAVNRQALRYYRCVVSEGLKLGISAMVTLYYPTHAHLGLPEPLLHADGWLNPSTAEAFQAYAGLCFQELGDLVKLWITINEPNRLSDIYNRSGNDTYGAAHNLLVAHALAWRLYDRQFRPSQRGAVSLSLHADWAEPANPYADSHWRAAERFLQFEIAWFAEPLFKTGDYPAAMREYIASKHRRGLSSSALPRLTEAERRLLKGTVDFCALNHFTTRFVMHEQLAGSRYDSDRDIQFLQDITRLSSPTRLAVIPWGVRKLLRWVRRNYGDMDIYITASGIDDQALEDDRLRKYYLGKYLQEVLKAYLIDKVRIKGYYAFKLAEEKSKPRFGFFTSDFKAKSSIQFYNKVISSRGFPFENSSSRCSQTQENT
Experimental: (§1) All MST measurements were performed using the Monolith NT.115Pico instrument (NanoTemper Technologies) with Monolith NT.115 MST Premium Coated Capillaries. Purified FGF21 was fluorescently labeled using the Monolith Protein Labeling Kit RED-NHS (NanoTemper Technologies) according to the instruction provided by the manufacturer. […] The thermophoretic movements of fl-FGF21 in each samples were monitored (LED 20%, IR laser 20%,) and the normalized fluorescence intensities (FNorm), defined as Fₕₒₜ/Fcold (where Fcold and Fₕₒₜ refer to the fluorescence intensities averaged over […] before IR laser is on and 29 s after IR laser is on, respectively), for each samples were plotted against the concentrations of sKLB. For the competition assays, the thermophoresis of fl-FGF21 was measured for samples where the concentration of fl-FGF21 and sKLB mixture was kept constant with the concentrations of GST-FGF21CT varying from 2.1 nM to 35000 nM. All the data were analyzed with the MO Affinity Analysis software (NanoTemper Technologies) provided by the manufacturer.
The affinity of FGF21 for sKLB was measured using MicroScale Thermophoresis or MST (Seidel et al., 2013, methods 59:301-315), where the thermophoretic movement of fluorescently-labeled FGF21 (fl-FGF21) in solution is monitored upon sKLB binding.

β-Klotho lacking D2 = biological target: T2, β-Klotho lacking D2 (human, UniProt Q86Z14 53-507); test: SPR and/or MST
T2 sequence: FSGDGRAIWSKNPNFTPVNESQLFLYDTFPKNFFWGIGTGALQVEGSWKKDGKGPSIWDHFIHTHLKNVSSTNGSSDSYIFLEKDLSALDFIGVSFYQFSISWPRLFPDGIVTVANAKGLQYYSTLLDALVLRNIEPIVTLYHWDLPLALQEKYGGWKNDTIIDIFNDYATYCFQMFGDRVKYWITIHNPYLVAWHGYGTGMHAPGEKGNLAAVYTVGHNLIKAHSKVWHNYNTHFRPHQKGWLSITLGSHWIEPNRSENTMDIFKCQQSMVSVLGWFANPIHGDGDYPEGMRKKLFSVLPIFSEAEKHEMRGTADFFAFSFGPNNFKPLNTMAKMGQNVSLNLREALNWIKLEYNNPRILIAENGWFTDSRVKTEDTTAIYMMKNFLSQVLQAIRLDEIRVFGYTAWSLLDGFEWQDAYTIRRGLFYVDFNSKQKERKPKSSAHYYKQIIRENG

[3] = biological target: T3, full-length human β-Klotho (KLB), C-terminal HA-tagged, on L6 cells (human, UniProt Q86Z14 53-1044); test: cell-based or functional assay
T3 sequence: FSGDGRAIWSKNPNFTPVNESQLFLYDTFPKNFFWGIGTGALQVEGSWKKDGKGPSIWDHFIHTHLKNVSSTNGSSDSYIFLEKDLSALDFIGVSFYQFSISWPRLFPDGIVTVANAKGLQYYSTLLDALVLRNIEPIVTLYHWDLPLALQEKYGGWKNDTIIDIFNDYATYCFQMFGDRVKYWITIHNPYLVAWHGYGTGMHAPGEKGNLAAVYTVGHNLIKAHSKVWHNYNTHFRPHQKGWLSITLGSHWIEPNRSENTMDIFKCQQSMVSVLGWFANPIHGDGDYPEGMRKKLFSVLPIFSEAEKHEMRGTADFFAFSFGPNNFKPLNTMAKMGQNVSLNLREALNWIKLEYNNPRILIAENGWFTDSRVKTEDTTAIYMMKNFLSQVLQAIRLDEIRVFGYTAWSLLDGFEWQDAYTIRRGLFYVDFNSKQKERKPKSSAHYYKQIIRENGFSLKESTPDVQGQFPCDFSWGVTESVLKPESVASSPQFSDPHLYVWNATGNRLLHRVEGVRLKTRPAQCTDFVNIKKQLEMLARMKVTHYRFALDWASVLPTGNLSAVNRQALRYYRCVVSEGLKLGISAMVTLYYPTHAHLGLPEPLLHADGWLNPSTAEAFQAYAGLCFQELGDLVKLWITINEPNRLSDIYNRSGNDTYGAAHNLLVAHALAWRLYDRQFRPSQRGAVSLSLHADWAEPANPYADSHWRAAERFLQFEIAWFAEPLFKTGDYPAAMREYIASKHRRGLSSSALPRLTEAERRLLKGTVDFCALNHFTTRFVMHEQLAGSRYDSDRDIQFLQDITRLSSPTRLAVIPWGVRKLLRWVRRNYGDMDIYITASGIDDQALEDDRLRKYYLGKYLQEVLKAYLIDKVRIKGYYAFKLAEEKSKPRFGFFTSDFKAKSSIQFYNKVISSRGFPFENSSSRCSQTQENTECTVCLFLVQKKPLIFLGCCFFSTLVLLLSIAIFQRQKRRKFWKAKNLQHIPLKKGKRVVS

[4] = biological target: T1, extracellular domain of human β-Klotho …; test: MST
Experimental: The thermophoretic movements of fl-FGF21 in each samples were monitored (LED 20%, IR laser 20%,) and the normalized fluorescence intensities (FNorm), defined as Fₕₒₜ/Fcold (where Fcold and Fₕₒₜ refer to the fluorescence intensities averaged over […] before IR laser is on and 29 s after IR laser is on, respectively), for each samples were plotted against the concentrations of sKLB. For the competition assays, the thermophoresis of fl-FGF21 was measured for samples where the concentration of fl-FGF21 and sKLB mixture was kept constant with the concentrations of GST-FGF21CT varying from 2.1 nM to 35000 nM. All the data were analyzed with the MO Affinity Analysis software (NanoTemper Technologies) provided by the manufacturer.
As endocrine FGFs play important roles in the control of metabolic processes, a variety of approaches have been utilized to develop novel therapeutics that retain (and exceed in potency) the beneficial stimulatory responses of FGF19 and or FGF21 while minimizing the side effects caused by these two hormones. […] In certain non-limiting embodiments, potency of FGF21 can be enhanced by introducing mutations into its C-terminal tail that strengthen interactions with β-Klotho. An L194F mutation was introduced to increase hydrophobic interactions with neighboring amino acids in site 1 of β-Klotho. […]

[5] = biological target: T1, extracellular domain of human β-Klotho …; test: MST; fluorescently labeled FGFR1cD2D3
[6] = biological target: T1, extracellular domain of human β-Klotho …; test: quantitative binding studies, method not given
[7] = biological target: T1, extracellular domain of human β-Klotho …; test: MST competition: GST-FGF21CT titrated into a constant mixture of sKLB and fluorescently labelled FGF21 (competitor: fl-FGF21)
Experimental: as §1
(§2) To measure binding of the C-terminal fragment of FGF21 (FGF21CT) to sKLB, an MST-based competition assay was used, in which GST-fused FGF21CT (GST-FGF21CT) was titrated into a constant sKLB/fl-FGF21 mixture (FIG. 6C).

[8] = biological target: T1, extracellular domain of human β-Klotho …; test: as above; remark: listed apart in the source
Experimental: as §1, §2

[9] = biological target: T1, extracellular domain of human β-Klotho …; test: MST competition; GST-FGF21CT titrated into a constant sKLB/fl-FGF21 mixture
Experimental: as §1, §2

[10] = biological target: T1, extracellular domain of human β-Klotho …; test: SPR; GST-FGF21CT immobilized on a sensor chip using anti-GST, sKLB in solution
[11] = biological target: T1, extracellular domain of human β-Klotho …; test: SPR and/or MST

Molecule: GST-FGF21CT S204A (from UniProt Q9NSA1 169-209)
IC50 [1]: 5.99 µM

Molecule: GST-FGF21CT Y207A (from UniProt Q9NSA1 169-209)
IC50 [1]: 6.63 µM

B1: recombinant human FGF21 (amino acids 29-209 with L126R, P199G and A208E, N-terminal His6 tag) (ligand)
chain: HPIPDSSPLLQFGGQVRQRYLYTDDAQQTEAHLEIREDGTVGGAADQSPESLLQLKALKPGVIQILGVKTSRFLCQRPDGALYGSLHFDPEACSFRERLLEDGYNVYQSEAHGLPLHLPGNKSPHRDPAPRGPARFLPLPGLPPALPEPPGILAPQPPDVGSSDPLSMVGGSQGRSPSYES
modifications: fluorescently labeled with Monolith Protein Labeling Kit RED-NHS (fl-FGF21) in the MST assays
notes: Expressed in E. coli; also called fl-FGF21; wild-type FGF21; not shown: N-terminal His6 tag from the pET28a vector
Kd [2]: 0.0435 µM
binding result (β-Klotho lacking D2): no binding

B2: R203W/L194F-mutated FGF21 (FGF21WF) (ligand)
chain: HPIPDSSPLLQFGGQVRQRYLYTDDAQQTEAHLEIREDGTVGGAADQSPESLLQLKALKPGVIQILGVKTSRFLCQRPDGALYGSLHFDPEACSFRELLLEDGYNVYQSEAHGLPLHLPGNKSPHRDPAPRGPARFLPLPGLPPALPEPPGILAPQPPDVGSSDPFSMVGPSQGWSPSYAS
notes: also called FGF21 carrying a double L194F/R203W mutations
stimulation of FGFR1c tyrosine phosphorylation in L6 cells coexpressing β-Klotho and FGFR1c [3]: ~10 fold
Kd [4]: 0.0034 µM
fold tighter binding than wild-type FGF21 [4]: > 10 fold

B4: GST-fused FGF21CT (GST-FGF21CT), wild type (other)
chain: GLPPALPEPPGILAPQPPDVGSSDPLSMVGPSQGRSPSYAS
modifications: not fully specified (N-terminus); also: fused to GST tag, letters not given here
notes: also called WT; not shown: glutathione S-transferase tag and linker encoded by the pGEX-4T-1 vector (GE Healthcare)
IC50 (read off the curve) [7]: ~0.7 µM
IC50 (read off the curve) [8]: ~0.7 µM
IC50 [9]: 0.704 µM
Kd [10]: 0.253 µM

The next lines start with the values.

IC50 [1]: 15.9 µM
Molecule: GST-FGF21CT D192A (from UniProt Q9NSA1 169-209)

IC50 [1]: 5.56 µM
Molecule: GST-FGF21CT S206A (from UniProt Q9NSA1 169-209)

IC50 [1]: 7.16 µM
Molecule: GST-FGF21CT P193A (from UniProt Q9NSA1 169-209)

Kd [5]: 0.94 µM and ~1 µM
B3: FGFR1cD2D3 (ligand binding region of FGFR1c) (receptor, UniProt P11362 142-365, looked up)
chain: DNTKPNRMPVAPYWTSPEKMEKKLHAVPAAKTVKFKCPSSGTPNPTLRWLKNGKEFKPDHRIGGYKVRYATWSIIMDSVVPSDKGNYTCIVENEYGSINHTYQLDVVERSPHRPILQAGLPANKTVALGSNVEFMCKVYSDPQPHIQWLKHIEVNGSKIGPDNLPYVQILKTAGVNTTDKEMEVLHLRNVSFEDAGEYTCLAGNSIGLSHHSAWLTVLEALEER
modifications: fluorescently labeled in the MST assay
notes: domain: D2D3; the c splice form of FGFR1; also called FGFR1cD2D3 extracellular region

Kd [6]: 0.043 µM
Molecule: LPEPPGILAPQPPDVGSSDPLSMVGGSQGRSPSYES (also called FGF21CT peptide) [FGF21CT synthetic peptide (C-terminal region of FGF21, residues 174-209 with P199G and A208E)]

binding result [11]: no binding
B5: FGF21 lacking the 10 C-terminal amino acids (ligand)
chain: HPIPDSSPLLQFGGQVRQRYLYTDDAQQTEAHLEIREDGTVGGAADQSPESLLQLKALKPGVIQILGVKTSRFLCQRPDGALYGSLHFDPEACSFRELLLEDGYNVYQSEAHGLPLHLPGNKSPHRDPAPRGPARFLPLPGLPPALPEPPGILAPQPPDVGSSDPLSMVGP
